# Substitutions are numbered along the chain they refer to.
# T1: human H2 prorelaxin (wild-type), P04090
# T1 chain: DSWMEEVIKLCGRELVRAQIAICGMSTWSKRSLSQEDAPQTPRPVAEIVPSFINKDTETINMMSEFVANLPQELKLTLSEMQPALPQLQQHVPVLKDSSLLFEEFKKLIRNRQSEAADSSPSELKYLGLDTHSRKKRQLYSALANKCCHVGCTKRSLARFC
# T2: prorelaxin mutant Rx 1.4, P04090
# T2 chain: T1 chain with R134V
# T3: prorelaxin mutant Rx 2.4, P04090
# T3 chain: T1 chain with K135A
# T4: prorelaxin mutant Rx 3.2, P04090
# T4 chain: T1 chain with K136A
# T5: prorelaxin mutant Rx 4.3, P04090
# T5 chain: T1 chain with K136R, R137A
# T6: prorelaxin mutant Rx7.2, P04090
# T6 chain: T1 chain with K30A
# T7: prorelaxin mutant Rx8.6, P04090
# T7 chain: T1 chain with R31A
# B1: murine prohormone convertase 2 (protein)
# chain: GYRDINEIDINMNDPLFTKQWYLFNTGQADGTPGLDLNVAEAWELGYTGKGVTIGIMDDGIDYLHPDLAYNYNADASYDFSSNDPYPYPRYTDDWFNSHGTRCAGEVSAAASNNICGVGVAYNSKVAGIRMLDQPFMTDIIEASSISHMPQLIDIYSASWGPTDNGKTVDGPRELTLQAMADGVNKGRGGKGSIYVWASGDGGSYDDCNCDGYASSMWTISINSAINDGRTALYDESCSSTLASTFSNGRKRNPEAGVATTDLYGNCTLRHSGTSAAAPEAAGVFALALEANLDLTWRDMQHLTVLTSKRNQLHDEVHQWRRNGVGLEFNHLFGYGVLDAGAMVKMAKDWKTVPERFHCVGGSVQNPEKIPPTGKLVLTLKTNACEGKENFVRYLEHVQAVITVNATRRGDLNINMTSPMGTKSILLSRRPRDDDSKVGFDKWPFMTTHTWGEDARGTWTLELGFVGSAPQKGLLKEWTLMLHGTQSAPYIDQVVRDYQSKLAMSKKQELEEELDEAVERSLQSILRKN
# B2: murine prohormone convertase 1 (protein)
# chain: SVQKDSALDLFNDPMWNQQWYLQDTRMTAALPKLDLHVIPVWEKGITGKGVVITVLDDGLEWNHTDIYANYDPEASYDFNDNDHDPFPRYDLTNENKHGTRCAGEIAMQANNHKCGVGVAYNSKVGGIRMLDGIVTDAIEASSIGFNPGHVDIYSASWGPNDDGKTVEGPGRLAQKAFEYGVKQGRQGKGSIFVWASGNGGRQGDNCDCDGYTDSIYTISISSASQQGLSPWYAEKCSSTLATSYSSGDYTDQRITSADLHNDCTETHTGTSASAPLAAGIFALALEANPNLTWRDMQHLVVWTSEYDPLASNPGWKKNGAGLMVNSRFGFGLLNAKALVDLADPRTWRNVPEKKECVVKDNNFEPRALKANGEVIVEIPTRACEGQENAIKSLEHVQFEATIEYSRRGDLHVTLTSAVGTSTVLLAERERDTSPNGFKNWDFMSVHTWGENPVGTWTLKITDMSGRMQNEGRIVNWKLILHGTSSQPEHMKQPRVYTSYNTVQNDRRGVEKMVNVVEKRPTQKSLNGNLLVPKNSSSSNVEGRRDEQVQGTPSKAMLRLLQSAFSKNALSKQSPKKSPSAKLSIPYESFYEALEKLNKPSKLEGSEDSLYSDYVDVFYNTKPYKHRDDRLLQALMDILNEEN
# Key:
# [1] = target: T1, human H2 prorelaxin (wild-type), P04090
# [2] = target: T2, prorelaxin mutant Rx 1.4, P04090
# [3] = target: T3, prorelaxin mutant Rx 2.4, P04090
# [4] = target: T4, prorelaxin mutant Rx 3.2, P04090
# [5] = target: T5, prorelaxin mutant Rx 4.3, P04090
# [6] = target: T6, prorelaxin mutant Rx7.2, P04090
# [7] = target: T7, prorelaxin mutant Rx8.6, P04090
Protein,cleavage of prorelaxin by murine prohormone convertase 2 [1],cleavage of prorelaxin mutant by murine prohormone convertase 2 [2],cleavage of prorelaxin mutant by murine prohormone convertase 2 [3],cleavage of prorelaxin mutant by murine prohormone convertase 2 [4],cleavage of prorelaxin mutant by murine prohormone convertase 2 [5],cleavage of prorelaxin mutant by murine prohormone convertase 2 [6],cleavage of prorelaxin mutant by murine prohormone convertase 2 [7],processing of prorelaxin mutant by murine prohormone convertase 1 [2],processing of prorelaxin mutant by murine prohormone convertase 1 [3],processing of prorelaxin mutant by murine prohormone convertase 1 [4],processing of prorelaxin mutant by murine prohormone convertase 1 [5],processing of prorelaxin mutant by murine prohormone convertase 1 [6],processing of prorelaxin mutant by murine prohormone convertase 1 [7]
B1,Murine prohormone convertase 2 does not cleave the wildtype prorelaxin,does not cleave any of the prorelaxin mutants with the exception of 4.3,does not cleave any of the prorelaxin mutants with the exception of 4.3,does not cleave any of the prorelaxin mutants with the exception of 4.3,with the exception of 4.3 where there is some processing,Mutant 7.2 is not cleaved by murine prohormone convertase 2,does not cleave any of the prorelaxin mutants with the exception of 4.3,–,–,–,–,–,–
B2,–,–,–,–,–,–,–,Mutants 1.4 and 2.4 are processed the same as wild-type,Mutants 1.4 and 2.4 are processed the same as wild-type,mutant 3.2 is partially processed,Mutant 4.3 doesn't appear to be processed,mutants 7.2 and 8.6 are not processed,mutants 7.2 and 8.6 are not processed
